In patent EP0957164B1:
pKd: −log10 of the molar value.

The substances below were run against insulin (UniProt P01308) (assay: PEG precipitation assay, A14-125I-insulin tracer displaced by unlabeled insulin, BHK medium).
Chain of UniProt P01308 (P01308 90-110 limits assumed, chain 1 of 2): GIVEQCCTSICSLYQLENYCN
Chain of UniProt P01308 (P01308 25-54 limits assumed, chain 2 of 2): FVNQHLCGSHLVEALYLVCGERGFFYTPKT
“IGFIR(Δ459-672).1-68, 704-729.IR (receptor)” showed a pKd of 8.36. IGFIR(Δ459-672).1-68IR (receptor) was tested, and the pKd was 8.68. IRΔ673 (receptor) was tested, and the pKd was 8.96. In the case of IRΔ685 (receptor), the pKd was 8.19. IRΔ703 (receptor) showed a pKd of 8.36.
